From publication PMC11326354, “Mechanism of human α3β GlyR modulation in inflammatory pain and 2, 6-DTBP interaction” (Research Square, 2024) come the findings set out here.

The term stoichiometry N denotes the number of molecules, sites or subunits per partner or assembly.

Series [1] concerns the molecule itself. Put plainly: cryo-EM structure; heteromeric GlyR in 0.06% digitonin, 20 mM Tris-HCl pH 8.0, 200 mM NaCl, 2 mM glycine.
Series [2] deals with human glycine receptor β subunit, βem construct (human). Described as above.
Chain of human glycine receptor β subunit, βem construct (human) (P48167 whole entry): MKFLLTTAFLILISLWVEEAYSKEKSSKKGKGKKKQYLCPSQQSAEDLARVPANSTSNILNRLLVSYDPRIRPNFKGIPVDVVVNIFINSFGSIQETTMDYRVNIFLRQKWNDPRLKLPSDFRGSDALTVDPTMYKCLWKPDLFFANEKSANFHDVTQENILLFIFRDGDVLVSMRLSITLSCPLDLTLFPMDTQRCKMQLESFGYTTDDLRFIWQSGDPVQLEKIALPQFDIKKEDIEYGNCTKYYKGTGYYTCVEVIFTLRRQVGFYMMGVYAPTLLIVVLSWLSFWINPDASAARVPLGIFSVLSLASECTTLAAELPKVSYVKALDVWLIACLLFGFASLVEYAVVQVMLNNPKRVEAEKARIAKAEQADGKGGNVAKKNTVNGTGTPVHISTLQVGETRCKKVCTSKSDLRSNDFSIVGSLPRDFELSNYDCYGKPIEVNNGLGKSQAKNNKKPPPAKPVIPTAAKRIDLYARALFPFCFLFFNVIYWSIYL
Series [3] has the same target. The series is described as follows: cryo-EM structure; heteromeric GlyR reconstituted in saposin nanodisc with brain polar lipids extract, 20 mM Tris-HCl pH 8.0, 200 mM NaCl, 2 mM glycine.
Series [4] concerns the molecule itself. Put plainly: FRET or BRET; TIRF-based single-molecule FRET between LD555 and LD655 at C358 of different α3 subunits; labelled GlyR (0.7 nM) held on NeutrAvidin/biotin anti-GFP antibody-coated glass by the GFP in β; 50 mM HEPES-NaOH pH 7.4, 150 mM NaCl, 10 mM MgCl2, 22 °C; apo, with 2 mM glycine, with 2 mM glycine and 500 μM 2, 6-DTBP. (In BRET a luciferase serves as donor, and the signal depends on an acceptor being close.)

Series [5] addresses human glycine receptor β subunit, βem construct (human). Put plainly: cryo-EM structure; heteromeric GlyR in 0.06% digitonin, 2 mM glycine, with 500 μM 2, 6-DTBP throughout the purification and another 500 μM added before grid freezing.

B1: human glycine receptor α3 subunit, α3em construct (receptor, UniProt O75311-1 34-464, looked up)
chain: ARSRSAPMSPSDFLDKLMGRTSGYDARIRPNFKGPPVNVTCNIFINSFGSIAETTMDYRVNIFLRQKWNDPRLAYSEYPDDSLDLDPSMLDSIWKPDLFFANEKGANFHEVTTDNKLLRIFKNGNVLYSIRLTLTLSCPMDLKNFPMDVQTCIMQLESFGYTMNDLIFEWQDEAPVQVAEGLTLPQFLLKEEKDLRYCTKHYNTGKFTCIEVRFHLERQMGYYLIQMYIPSLLIVILSWVSFWINMDAAPARVALGITTVLTMTTQSSGSRASLPKVSYVKAIDIWMAVCLLFVFSALLEYAAVNFVSRQHKELLRFRRKRKNKTEAFDMDDEVRESRFSFTAYGMGPCLQAKDGMTPKGPNHPVQVMPKSPDEMRKVFIDRAKKIDTISRACFPLAFLIFNIFYWVIYKILRHEDIHQQQD
notes: glycine receptor α3 subunit, human, NCBI NP_006520.2; 9 residues of the M3/M4 loop (A329-S337) deleted; the model description counts 422 aa in all, from A1 to D431; Four copies of this subunit stand with one β subunit in the pentamer; also called GlyR α3
On to B1, for which the binding result in series [1] was “binds”. Moreover, the stoichiometry N in series [2] and in series [3] was 4 α3 per β throughout.

B2: human glycine receptor α3 subunit, α3_(FRET) construct (receptor, UniProt O75311-1 34-464, looked up)
chain: ARSRSAPMSPSDFLDKLMGRTSGYDARIRPNFKGPPVNVTVNIFINSFGSIAETTMDYRVNIFLRQKWNDPRLAYSEYPDDSLDLDPSMLDSIWKPDLFFANEKGANFHEVTTDNKLLRIFKNGNVLYSIRLTLTLSCPMDLKNFPMDVQTCIMQLESFGYTMNDLIFEWQDEAPVQVAEGLTLPQFLLKEEKDLRYCTKHYNTGKFTCIEVRFHLERQMGYYLIQMYIPSLLIVILSWVSFWINMDAAPARVALGITTVLTMTTQSSGSRASLPKVSYVKAIDIWMAVCLLFVFSALLEYAAVNFVSRQHKELLRFRRKRKNKTEAFDMDDEVRESRFSFTAYGMGPCLQAKDGMTPKGPNHPVQVMPKSPDEMRKVFIDRAKKIDTISRACFPLAFLIFNIFYWVIYKILRHEDIHQQQD
modifications: cysteine-reactive dye (LD555-MAL or LD655-MAL) at C358
notes: glycine receptor α3 subunit, human, NCBI NP_006520.2; α3em (A329-S337 deleted) with C41V and an A1 tag inserted between S380 and P381; Stood in the smFRET assay as part of the α3_(FRET)β_(FRET) pentamer, which was held on the glass by the GFP in β_(FRET) (βem with C115S); also called α_(FRET)
As to B2, the binding result in series [4] was “binds”.

B3: human glycine receptor α3 subunit, α3S346E_(FRET) construct (receptor, UniProt O75311-1 34-464, looked up)
chain: ARSRSAPMSPSDFLDKLMGRTSGYDARIRPNFKGPPVNVTVNIFINSFGSIAETTMDYRVNIFLRQKWNDPRLAYSEYPDDSLDLDPSMLDSIWKPDLFFANEKGANFHEVTTDNKLLRIFKNGNVLYSIRLTLTLSCPMDLKNFPMDVQTCIMQLESFGYTMNDLIFEWQDEAPVQVAEGLTLPQFLLKEEKDLRYCTKHYNTGKFTCIEVRFHLERQMGYYLIQMYIPSLLIVILSWVSFWINMDAAPARVALGITTVLTMTTQSSGSRASLPKVSYVKAIDIWMAVCLLFVFSALLEYAAVNFVSRQHKELLRFRRKRKNKTEAFDMDDEVREERFSFTAYGMGPCLQAKDGMTPKGPNHPVQVMPKSPDEMRKVFIDRAKKIDTISRACFPLAFLIFNIFYWVIYKILRHEDIHQQQD
modifications: cysteine-reactive dye (LD555-MAL or LD655-MAL) at C358
notes: glycine receptor α3 subunit, human, NCBI NP_006520.2; α3S346Eem (A329-S337 deleted, S346E) with C41V and an A1 tag inserted between S380 and P381; Stood in the smFRET assay as part of the α3_(FRET)S346Eβ_(FRET) pentamer, which was held on the glass by the GFP in β_(FRET) (βem with C115S); also called α3_(FRET)S346E
In the case of B3, the binding result in series [4] is reported as “binds”.

B4: human glycine receptor α3 subunit, α3S346Eem construct (phosphorylation mimic) (receptor, UniProt O75311-1 34-464, looked up)
chain: ARSRSAPMSPSDFLDKLMGRTSGYDARIRPNFKGPPVNVTCNIFINSFGSIAETTMDYRVNIFLRQKWNDPRLAYSEYPDDSLDLDPSMLDSIWKPDLFFANEKGANFHEVTTDNKLLRIFKNGNVLYSIRLTLTLSCPMDLKNFPMDVQTCIMQLESFGYTMNDLIFEWQDEAPVQVAEGLTLPQFLLKEEKDLRYCTKHYNTGKFTCIEVRFHLERQMGYYLIQMYIPSLLIVILSWVSFWINMDAAPARVALGITTVLTMTTQSSGSRASLPKVSYVKAIDIWMAVCLLFVFSALLEYAAVNFVSRQHKELLRFRRKRKNKTEAFDMDDEVREERFSFTAYGMGPCLQAKDGMTPKGPNHPVQVMPKSPDEMRKVFIDRAKKIDTISRACFPLAFLIFNIFYWVIYKILRHEDIHQQQD
notes: glycine receptor α3 subunit, human, NCBI NP_006520.2; α3em (A329-S337 deleted) with S346E; the model description counts 422 aa in all, from A1 to D431; Four copies of this subunit stand with one β subunit in the pentamer; also called α3emS346E
B4: in series [1], the binding result was “binds”. The stoichiometry N in series [2] and in series [5] was 4 α3 per β in each case.
